Data taken from PMC11566906, “Transcription factor PbrERF114 is involved in the regulation of ethylene synthesis during pear fruit ripening”.

Tests used:
[1] = target: T1, PbrERF114 (pear, cultivar Cuiguan?, UniProt A0A5H2MWQ4 1-250); experiment: BLI; saturated at 8382 nM; sentence names PbrERF24-His, but context and legend are PbrERF114; BLI: 137 mM NaCl, 4.3 mM Na2HPO4, 2.7 mM KCl, 1.4 mM KH2PO4, 0.02% Tween-20, pH 7.2 (PBS), streptavidin sensors, temperature not given; EMSA: LightShift Chemiluminescent EMSA kit, buffer not given; conditions: protein: recombinant; tags: His; pCold-TF vector (trigger factor fusion implied); label: biotin
[2] = target: T1, PbrERF114; experiment: EMSA; signal decreased with 10x, 50x, 200x cold probe; BLI: 137 mM NaCl, 4.3 mM Na2HPO4, 2.7 mM KCl, 1.4 mM KH2PO4, 0.02% Tween-20, pH 7.2 (PBS), streptavidin sensors, temperature not given; EMSA: LightShift Chemiluminescent EMSA kit, buffer not given; conditions: protein: recombinant; tags: His; pCold-TF vector (trigger factor fusion implied); label: biotin

T1 sequence (A0A5H2MWQ4 entry or part of it): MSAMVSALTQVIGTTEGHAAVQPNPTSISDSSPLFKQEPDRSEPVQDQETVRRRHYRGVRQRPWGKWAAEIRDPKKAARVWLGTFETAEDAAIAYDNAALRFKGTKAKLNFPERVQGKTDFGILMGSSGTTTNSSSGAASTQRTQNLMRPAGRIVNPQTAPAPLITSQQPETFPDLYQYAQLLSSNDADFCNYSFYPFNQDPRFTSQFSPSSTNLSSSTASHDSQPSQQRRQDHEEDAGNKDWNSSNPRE

Binder	Kd [1] [nM]	binding result [2]
PbrERF24 promoter probe (dsDNA) DNA 1: CCAGTTTACAATGGTGGCCAAGATTGTAAT DNA 2: ATTACAATCTTGGCCACCATTGTAAACTGG	< 1000	
PbrACS3 promoter probe (PbrERF114 EMSA) (dsDNA) DNA 1: TTACCATCTTAGGTGGCAGATGAGTTGGAC DNA 2: GTCCAACTCATCTGCCACCTAAGATGGTAA		binds
